B1: rOicPaF(p-Me) (D-Arg-Oic-Pro-D-Ala-Phe(p-Me)) (peptide)
peptide: RXPAF
HELM: PEPTIDE1{[dR].[O=C([C@@H]1C[C@@H]2CCCC[C@@H]2N1[*:1])[*:2]].P.[dA].[Cc1ccc(C[C@H](N[*:1])C(=O)[*:2])cc1].[am]}$$$$V2.0
SMILES: Cc1ccc(C[C@H](NC(=O)[C@@H](C)NC(=O)[C@@H]2CCCN2C(=O)[C@@H]2C[C@@H]3CCCC[C@@H]3N2C(=O)[C@H](N)CCCNC(=N)N)C(N)=O)cc1
notes: also called H-r-Oic-P-a-F(p-Me)-NH2
B2: rOicPsF(p-Me) (D-Arg-Oic-Pro-D-Ser-Phe(p-Me)) (peptide)
peptide: RXPSF
HELM: PEPTIDE1{[dR].[O=C([C@@H]1C[C@@H]2CCCC[C@@H]2N1[*:1])[*:2]].P.[dS].[Cc1ccc(C[C@H](N[*:1])C(=O)[*:2])cc1].[am]}$$$$V2.0; N-terminus assumed
SMILES: Cc1ccc(C[C@H](NC(=O)[C@@H](CO)NC(=O)[C@@H]2CCCN2C(=O)[C@@H]2C[C@@H]3CCCC[C@@H]3N2C(=O)[C@H](N)CCCNC(=N)N)C(N)=O)cc1
B3: rOicPaF(p-I) (D-Arg-Oic-Pro-D-Ala-Phe(p-I)) (peptide)
peptide: RXPAF
HELM: PEPTIDE1{[dR].[O=C([C@@H]1C[C@@H]2CCCC[C@@H]2N1[*:1])[*:2]].P.[dA].[O=C([C@H](Cc1ccc(I)cc1)N[*:1])[*:2]].[am]}$$$$V2.0; N-terminus assumed
SMILES: C[C@@H](NC(=O)[C@@H]1CCCN1C(=O)[C@@H]1C[C@@H]2CCCC[C@@H]2N1C(=O)[C@H](N)CCCNC(=N)N)C(=O)N[C@@H](Cc1ccc(I)cc1)C(N)=O
B4: rOicPaF(p-Br) (D-Arg-Oic-Pro-D-Ala-Phe(p-Br)) (peptide)
peptide: RXPAF
HELM: PEPTIDE1{[dR].[O=C([C@@H]1C[C@@H]2CCCC[C@@H]2N1[*:1])[*:2]].P.[dA].[O=C([C@H](Cc1ccc(Br)cc1)N[*:1])[*:2]].[am]}$$$$V2.0; N-terminus assumed
SMILES: C[C@@H](NC(=O)[C@@H]1CCCN1C(=O)[C@@H]1C[C@@H]2CCCC[C@@H]2N1C(=O)[C@H](N)CCCNC(=N)N)C(=O)N[C@@H](Cc1ccc(Br)cc1)C(N)=O

target: T1, human α-thrombin (human, UniProt P00734 328-622); test: inhibition of α-thrombin hydrolysis of Sar-Pro-Arg-paranitroanilide; Ki from Ki,app by the procedure of Bieth

| Binder | Ki |
| --- | --- |
| B1 | 6.6 µM |
| B2 | 6.7 µM |
| B3 | 6.4 µM |
| B4 | 7.3 µM |

target: T1, human α-thrombin; test: cell-based or functional assay

| Binder | peptide concentration giving significant prolongation (p<0.05) of the APTT of normal human plasma | peptide concentration giving significant prolongation (p<0.05) of the PT of normal human plasma | peptide concentration giving significant prolongation (p<0.05) of the TCT of normal human plasma |
| --- | --- | --- | --- |
| B1 | 1.56 µM | 1.56 µM | 0.78 µM |
| B2 | 3.13 µM | 1.56 µM | 0.39 µM |
| B3 | 25 µM | 6.25 µM | 0.78 µM |
| B4 | 12.5 µM | 6.25 µM | 0.78 µM |
